Several values for one entry are separate records, joined by “and”; a condition that tells them apart may be missing. Identical values can stand only once.

Experiment [1] deals with biotinylated 6X-His-GSK3β (human, UniProt P49841 1-420, biotin (site not stated)). Put plainly: BLI. On the technique in general: Biolayer interferometry detects binding as a change in optical thickness at a sensor tip.
For experiment [2], the target named is N- and C-terminal double His-tagged GSK3β (His-GSK3β-His) (human, UniProt P49841 1-420). Put plainly: SPR. In general terms: SPR reads the build-up and loss of mass on a sensor chip optically.
Experiment [3] has as its target 6X-HisGSK3β purchased from Signalchem (G09-10H-05) (human, UniProt P49841 1-420). As to the kind of experiment: MST.

Sequence of biotinylated 6X-His-GSK3β (P49841 whole entry): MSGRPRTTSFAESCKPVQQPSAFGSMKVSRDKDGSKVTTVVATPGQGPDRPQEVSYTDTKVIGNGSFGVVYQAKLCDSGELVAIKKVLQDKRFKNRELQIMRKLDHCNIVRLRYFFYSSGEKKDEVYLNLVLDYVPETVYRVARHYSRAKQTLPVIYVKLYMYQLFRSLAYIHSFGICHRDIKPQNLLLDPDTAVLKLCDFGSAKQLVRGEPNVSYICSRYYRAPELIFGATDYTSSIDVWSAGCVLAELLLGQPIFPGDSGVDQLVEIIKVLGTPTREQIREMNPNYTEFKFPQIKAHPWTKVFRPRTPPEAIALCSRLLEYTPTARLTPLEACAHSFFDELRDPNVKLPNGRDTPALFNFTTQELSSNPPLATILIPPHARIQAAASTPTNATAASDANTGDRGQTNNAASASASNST
Sequence of N- and C-terminal double His-tagged GSK3β (His-GSK3β-His) (P49841 whole entry): as above
Sequence of 6X-HisGSK3β purchased from Signalchem (G09-10H-05) (P49841 whole entry): as above

B1: FRATide (peptide)
peptide: DPHRLLQQLVLSGNLIKEAVRRLHS
In general, Kd refers to the free concentration of one partner at which half of the binding sites on the other are occupied at equilibrium, for simple one-to-one binding. A low value points to tighter binding. Regarding B1, the Kd was 3.6 µM and 3.8 µM in experiment [1]; 1.9 µM and 3.2 µM in experiment [2].

B2: hDISCtide, 44-mer peptide derived from human DISC1 (residues 193-236) (peptide, UniProt Q9NRI5 193-236, looked up)
peptide: PEVPPTPPGSHSAFTSSFSFIRLSLGSAGERGEAEGCPPSREAE
The koff is the first-order rate constant of dissociation. A word on the kon: it is a measure of how fast the partners come together. Take B2: in experiment [3], the Kd came out at 5.7 µM. For the same molecule, in experiment [2], the dissociation rate constant (koff) was found to be 0.000249 s⁻¹ and the association rate constant (kon) turned out to be 495 ± 31.4 M⁻¹ s⁻¹.

B3: AxinGID (peptide)
peptide: VEPQKFAEELIHRLEAVQ
Consider B3, for which the affinity in experiment [1], expressed as Kd, was 63.6 µM.
